Key:
[1] = system: RD-ES (Ewing's sarcoma) xenografts; test: Xenograft efficacy study in mice; type: in vivo
Excerpt: Although proliferation of SK-ES-1 and SJCRH30 cells was inhibited by MEDI-573 in vitro in the absence of exogenous IGFs, the in vivo growth of these two models was not effected by MEDI-573 treatment.
The combination treatments were tolerated as no significant body weight loss was observed (FIG. 17B).
For in vivo efficacy studies, five million sarcoma cells in 50% matrigel were inoculated subcutaneously into each female athymic nude mice. When tumors reach approximately 150-200 mm^3, mice were randomly assigned into groups (10 mice per group). MEDI-573 was administrated intraperitoneally twice per week at indicated doses. The dose regimen for AZD2014 was oral once every day, for rapamycin was intraperitoneal injection every 3 days. Tumor volumes were measured twice weekly with calipers. Tumor growth inhibition was calculated on the last day of study relative to the initial and final mean tumor volume of the control group.

IGF-2 in SJSA-1 tumors = molecular target: T1, IGF-2 in SJSA-1 tumors (Homo sapiens, UniProt P01344); test: Free IGF ligands in xenograft tumors (ELISA); type: in vivo, mouse xenograft; conditions: even at the lowest dose of 10 mg/kg
T1 construct: endogenous in cells; host or cells: SJSA-1 (osteosarcoma) xenograft tumors in athymic nude mice
Experimental: (§1) Free IGF ligands were measured in xenograft tumors in untreated mice and in mice treated with different amounts of MEDI-573. […] Despite KHOS cells being unresponsive to IGF-1 and/or IGF-2 stimulation, IGF-2 levels were examined in a KHOS/NP model.
(§2) Sarcoma cell lines were purchased from American type Culture Collection (Manassas, Va.). CellTiter-Glo reagents were obtained from Promega (Madison, Wis.). Whole cell lysate kits for pIGF-1R, pIR-A, and pAKT were purchased from Meso Scale Discovery (MSD; Rockville, Md.). ELISA kits for total IGF-1 and IGF-1R were purchased from R&D Systems (Minneapolis, Minn.). ELISA kits for total IGF-2 were purchased from Insight Genomics (Falls Church, Va.). An ELISA kit for detecting free IGF-1 and IGF-2 was developed in house. Human IGF-1 and IGF-2 were obtained from R&D Systems (Minneapolis, Minn.). Antibodies for detecting phospho-AKT, phospho-4EBP1, phospho-S6K, and GAPDH were from Cell Signaling Technology (Beverly, Mass.).

[2] = molecular target: T2, human IGF-2 in KHOS/NP model (Homo sapiens, UniProt P01344); test: Free IGF ligands in xenograft tumors (ELISA); type: in vivo, mouse xenograft; conditions: up to 60 mg/kg
T2 construct: endogenous in cells; host or cells: KHOS/NP (osteosarcoma) xenograft tumors in athymic nude mice
Experimental: as §1, §2

murine IGF-1 = murine IGF-1 (Mus musculus, UniProt P05017); test: Binding affinity
p4EBP1 [3] = test: In vivo mechanism of action study, immunoblot of tumors; parameters: species or system mice
Experimental: (§3) The in vivo effects of MEDI-573 on IGF signaling were also examined in sarcoma xenografts. To be consistent with in vitro experiments, in vivo pharmacodynamic studies were performed in two ways. First, the effect of MEDI-573 on signaling that was induced by IGF ligands, which were secreted by tumors in an autocrine manner, was examined. A single dose of MEDI-573 was given to mice bearing ˜400 mm^3 RD-ES, SJSA-1, or KHOS/NP tumors.
(§4) IGF-1/-2 injection did change the baseline level of p4EBP-1.
(§5) For in vivo mechanism of action (MOA) studies, when tumors reached approximately 400 mm^3, a single dose of MEDI-573 was given. Tumor and plasma samples were collected 4 hr after dosing to assess the effect of MEDI-573 on autocrine IGF signaling. In another set of mice, 6 hr after MEDI-573 dosing, human IGF-1 or IGF-2 was injected by tail-vein. Tumor and plasma samples were collected 15 min after IGFs injection to assess the effect of MEDI-573 on IGF-1/-2 induced signaling.

pAKT = test: as above; parameters: species or system mice
Experimental: as §3, §4, §5

RD-ES cells = test: Cytotoxicity assay, MEDI-573 and mTOR inhibitors; type: cell-based; conditions: agents alone or in combination (FIG. 14)
p4EBP1 [4] = test: Immunoblot of cell lysates after MEDI-573, mTORi, combination; type: cell-based; conditions: single agent, 4 hours
Experimental: (§6) To examine the effect of MEDI-573, mTORi, and combination of both on IGF signaling, RD-ES, SJSA-1, and KHOS cells were treated with these agents for 4 hours. After separation of the cell lysates by gel electrophoresis, the proteins were detected by immunoblotting.

pS6K = test: as above; type: cell-based; conditions: RD-ES and SJSA-1 cells, 4 hours
Experimental: as §6

[5] = system: engineered NIH3T3 and human tumor cell lines; test: In vitro growth of engineered and tumor cell lines; type: cell-based
Excerpt: (§7) MEDI 573 selectively binds to human insulin-like growth factor (hIGF)-I and hIGF-2 and […]. MEDI-573 targets the IGF-1 and IGF-2 ligands and thereby inhibits IGF-mediated signal transduction. […] Furthermore, MEDI-573 has potential to achieve this without perturbing glucose homeostasis, which has been an adverse effect observed with investigational agents that target IGF 1R. The results of in vitro studies have shown that MEDI-573 inhibited both IGF-1 and IGF-2-stimulated phosphorylation of IGF 1R and that of downstream signaling proteins including Akt and MAPK in a number of engineered mouse embryonic fibroblast NIH-3T3 cell lines transfected to express human IGF-1R and either human IGF-1/-2. Furthermore, MEDI-573 inhibited autocrine phosphorylation of these signaling molecules.

clone 32 (C32) tumors = test: Growth of implanted tumors in mice; type: in vivo; conditions: C32 tumors overexpressing hIGF II and hIGF-1R
Excerpt: as §7

clone P12 (P12) tumors = test: Growth of implanted tumors in mice; type: in vivo; conditions: P12 tumors overexpressing hIGF-1 and hIGF-1R
Excerpt: as §7

[6] = RD-ES tumors ~400 mm^3, single dose, 4 hr after dosing
[7] = RD-ES-bearing mice injected with human IGF-1/-2, MEDI-573 pretreatment

T2 sequence (P01344 25-91): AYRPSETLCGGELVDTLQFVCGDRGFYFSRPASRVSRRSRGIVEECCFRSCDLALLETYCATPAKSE
T1 sequence (P01344 25-91): as above
Sequence of murine IGF-1 (P05017 1-118 limits assumed): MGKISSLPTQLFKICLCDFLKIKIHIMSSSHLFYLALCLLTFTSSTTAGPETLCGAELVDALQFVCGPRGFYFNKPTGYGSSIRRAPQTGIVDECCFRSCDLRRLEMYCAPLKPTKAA

B1: MEDI-573: fully human monoclonal IgG2 lambda antibody that binds IGF-2 with cross reactivity to IGF-1; hybridoma 7.159.2, ATCC PTA-7424 (antibody)
heavy: QVQLVQSGAEVKKPGASVKVSCKASGYTFTSYDINWVRQATGQGLEWMGWMNPNSGNTGYAQKFQGRVTMTRNTSISTAYMELSSLRSEDTAVYYCARDPYYYYYGMDVWGQGTTVTVSSASTKGPSVFPLAPCSRSTSESTAALGCLVKDYFPEPVTVSWNSGALTSGVHTFPAVLQSSGLYSLSSVVTVPSSNFGTQTYTCNVDHKPSNTKVDKTVERKCCVECPPCPAPPVAGPSVFLFPPKPKDTLMISRTPEVTCVVVDVSHEDPEVQFNWYVDGVEVHNAKTKPREEQFNSTFRVVSVLTVVHQDWLNGKEYKCKVSNKGLPAPIEKTISKTKGQPREPQVYTLPPSREEMTKNQVSLTCLVKGFYPSDIAVEWESNGQPENNYKTTPPMLDSDGSFFLYSKLTVDKSRWQQGNVFSCSVMHEALHNHYTQKSLSLSPGK
light: QSVLTQPPSVSAAPGQKVTISCSGSSSNIENNHVSWYQQLPGTAPKLLIYDNNKRPSGIPDRFSGSKSGTSATLGITGLQTGDEADYYCETWDTSLSAGRVFGGGTKLTVLGQPKAAPSVTLFPPSSEELQANKATLVCLISDFYPGAVTVAWKADSSPVKAGVETTTPSKQSNNKYAASSYLSLTPEQWKSHRSYSCQVTHEGSTVEKTVAPTECS
[1]; RD-ES xenograft model, AZD2014 combination study (FIG. 16A)
  tumor growth inhibition: 52%
[1]; RD-ES xenograft model, rapamycin combination study (FIG. 17A)
  tumor growth inhibition: 59%
[1]; RD-ES xenografts, 10 mg/kg twice weekly intraperitoneally
  tumor growth inhibition: 25%
[1]; RD-ES xenografts, 30 mg/kg twice weekly intraperitoneally
  tumor growth inhibition: 44%
[1]; RD-ES xenografts, 60 mg/kg twice weekly intraperitoneally
  tumor growth inhibition: 52%
IGF-2 in SJSA-1 tumors
  free IGF-2 in tumors: almost completely neutralized
[2]
  human IGF-2 levels in tumors: Dose-dependent inhibition
Murine IGF-1
  binding affinity: low binding affinity
p4EBP1 [3]; KHOS/NP tumors, single dose
  phosphorylated p4EBP1 in tumors: not in KHOS/NP tumors
p4EBP1 [3]; [6]
  phosphorylated p4EBP1 in tumors: inhibited
p4EBP1 [3]; [7]
  p4EBP-1 in tumors: inhibited p4EBP-1 even below the baseline level
pAKT; KHOS/NP tumors, single dose
  autophosphorylation of pAKT in tumors: not in KHOS/NP tumors
pAKT; [6]
  autophosphorylation of pAKT in tumors: inhibited autophosphorylation
pAKT; [7]
  IGF-induced pAKT in tumors: dramatic reduction
RD-ES cells
  decrease in cell viability: 56%
p4EBP1 [4]
  phosphorylation of 4EBP1: did not have effect
pS6K
  phosphorylation of S6K: inhibited phosphorylation of S6K
[5]
  growth in vitro: effectively inhibited the growth
Clone 32 (C32) tumors
  growth of implanted tumors: significantly inhibited the growth
Clone P12 (P12) tumors
  growth of implanted tumors: significantly inhibited the growth

Reference: patent US20160324962A1, “COMPOSITIONS AND METHODS FOR TREATING SARCOMA” (MEDIMMUNE, LLC, priority 2013, published 2016)
